Positions count from the first letter of the chain named. Names may count otherwise.
Tests used:
[1] = substrate: OC[C@H]1OC(O)[C@H](O)[C@@H](O)[C@@H]1O; assay: Steady-state kinetics, DCIP assay: C. thermophilus flavodehydrogenase domain C310Y; type: biochemical, Corynascus thermophilus; settings: other: apparent, pH 5.5, 30° C.
Protocol: (§1) Enzyme activity was assayed at 30° C. using either the DCIP (Karapetyan et al., 2005 Journal of Biotechnology 121: 34-48) or cytochrome c (Canevascini et al., 1991, European Journal of Biochemistry 198: 43-52) as electron acceptor. […] Stock solutions of carbohydrates used for kinetic measurements were prepared in the respective buffer and allowed to stand overnight for mutarotation, while stock solutions of electron acceptors were prepared in water and immediately used. The reaction stoichiometry is 1 for the two-electron acceptor DCIP (1 mole of DCIP reduced per mole of carbohydrate oxidized), but 2 for the one-electron acceptor cytochrome c. Kinetic constants were calculated by fitting the observed data to the Henri-Michaelis-Menten equation or to the adapted model for substrate inhibition using nonlinear least-squares regression and the program SigmaPlot (Systat Software, San Jose, Calif., USA).
(§2) Recombinant wild-type CDH as well as variants were produced in 1 L baffled flasks. Precultures were grown overnight in 30 mL of YPD medium at 30° C. and 120 rpm. After approximately 18 hours the precultures were transferred into 1 L baffled flasks containing 200 mL BMGY medium without methanol. Induction with methanol was started immediately using a multichannel peristaltic pump (Minipuls Evolution, Gilson, Middleton, Wis., USA). Each flask was supplied eight times a day with methanol yielding a total concentration of 2% (v/v) methanol per day. Increase in activity was monitored using the DCIP and the cytochrome c enzyme assays. Cultivation was stopped at day five of methanol induction, cells removed by centrifugation (4000 rpm, 20 min) and the supernatant set to a final ammonium sulfate concentration of 20%.
(§3) Enzymes were purified to homogeneity in a two-step purification. The sample was loaded on a 20 mL PHE Sepharose FF column (HR26/20) equilibrated with 50 mM Na-acetate buffer pH 5.5 containing 20% ammonium sulfate. Proteins were eluted by increasing the concentration of the elution buffer (50 mM Na-acetate buffer pH 5.5) from 0 to 100% in 5 column volumes and fractions containing CDH activity were pooled. After diafiltration with a polyethersulfone flat-stack cross flow module with a cut-off of 10 kDa (Viva Flow 50, Sartorius, Göttingen, Germany) until conductivity of 5 mS cm^−1 in 20 mM Na-acetate pH 5.5 the samples were loaded on a 20 mL Q-Source column (HR26/20) equilibrated with a 20 mM Na-acetate buffer pH 5.5. CDH was eluted by increasing the concentration of the elution buffer (50 mM Na-acetate buffer pH 5.5 containing 0.5 M NaCl) from 0 to 100% in 50 column volumes. Fractions were tested for CDH activity and pooled according to the highest Reinheitszahl (RZ, calculated from the absorbance ratio 420 nm/280 nm). Purified enzymes were concentrated and diafiltered in 50 mM citrate buffer, pH 5.5, aliquoted and kept at 4° C. for further use.

[2] = substrate: OC[C@H]1O[C@H](O[C@H]2[C@H](O)[C@@H](O)C(O)O[C@@H]2CO)[C@H](O)[C@@H](O)[C@@H]1O; assay: as above; type: biochemical, Corynascus thermophilus; settings: other: apparent, pH 5.5, 30° C.
Protocol: as §1, §2, §3

[3] = substrate: OC[C@H]1O[C@H](O[C@H]2[C@H](O)[C@@H](O)C(O)O[C@@H]2CO)[C@H](O)[C@@H](O)[C@@H]1O; assay: purified protein, by the assay type; settings: other: apparent, wt flavodehydrogenase domain, DCIP assay, pH 5.5, 30° C.
[4] = substrate: OC[C@H]1OC(O)[C@H](O)[C@@H](O)[C@@H]1O; assay: Steady-state kinetics, DCIP assay: C. thermophilus CDH C310Y; type: biochemical, Corynascus thermophilus; settings: other: apparent, pH 5.5, 30° C.
Protocol: as §1, §3

[5] = substrate: OC[C@H]1O[C@H](O[C@H]2[C@H](O)[C@@H](O)C(O)O[C@@H]2CO)[C@H](O)[C@@H](O)[C@@H]1O; assay: as above; type: biochemical, Corynascus thermophilus; settings: other: apparent, pH 5.5, 30° C.
Protocol: as §1, §3

[6] = substrate: OC[C@H]1O[C@H](O[C@H]2[C@H](O)[C@@H](O)C(O)O[C@@H]2CO)[C@H](O)[C@@H](O)[C@@H]1O; assay: Steady-state kinetics, DCIP assay: M. thermophilum CDH N313S; type: biochemical, Myriococcum thermophilum; settings: other: apparent, pH 4.5, 30° C.
Protocol: as §1, §3

[7] = substrate: OC[C@H]1OC(O)[C@H](O)[C@@H](O)[C@@H]1O; assay: Steady-state kinetics, DCIP assay: M. thermophilum CDH W316L; type: biochemical, Myriococcum thermophilum; settings: other: apparent, pH 4.5, 30° C., ~ values only estimated by non linear regression
Protocol: (§4) Enzyme activity was assayed at 30° C. using either the DCIP (Karapetyan et al., 2005 Journal of Biotechnology 121: 34-48) or cytochrome c (Canevascini et al., 1991, European Journal of Biochemistry 198: 43-52) as electron acceptor. […] Stock solutions of carbohydrates used for kinetic measurements were prepared in the respective buffer and allowed to stand overnight for mutarotation, while stock solutions of electron acceptors were prepared in water and immediately used. The reaction stoichiometry is 1 for the two-electron acceptor DCIP (1 mole of DCIP reduced per mole of carbohydrate oxidized), but 2 for the one-electron acceptor cytochrome c. Kinetic constants were calculated by fitting the observed data to the Henri-Michaelis-Menten equation or to the adapted model for substrate inhibition using nonlinear least-squares regression and the program SigmaPlot (Systat Software, San Jose, Calif., USA). […]
(§5) Recombinant wild-type CDH as well as variants were produced in 1 L baffled flasks. […] Increase in activity was monitored using the DCIP and the cytochrome c enzyme assays. […]
(§6) Enzymes were purified to homogeneity in a two-step purification. […] Fractions were tested for CDH activity and pooled according to the highest Reinheitszahl (RZ, calculated from the absorbance ratio 420 nm/280 nm). […]

[8] = substrate: OC[C@H]1OC(O)[C@H](O)[C@@H](O)[C@@H]1O; assay: Steady-state kinetics, DCIP assay: M. thermophilum CDH R622N; type: biochemical, Myriococcum thermophilum; settings: other: apparent, pH 4.5, 30° C., ~ values only estimated by non linear regression
Protocol: as §4, §5, §6

[9] = substrate: OC[C@H]1O[C@H](O[C@H]2[C@H](O)[C@@H](O)C(O)O[C@@H]2CO)[C@H](O)[C@@H](O)[C@@H]1O; assay: Steady-state kinetics, DCIP assay: M. thermophilum CDH wt; type: biochemical, Myriococcum thermophilum; settings: other: apparent, pH 4.5, 30° C.
Protocol: as §1, §3

[10] = substrate: OC[C@H]1O[C@H](O[C@H]2[C@H](O)[C@@H](O)C(O)O[C@@H]2CO)[C@H](O)[C@@H](O)[C@@H]1O; assay: Steady-state kinetics, DCIP assay: M. thermophilum CDH N721D; type: biochemical, Myriococcum thermophilum; settings: other: apparent, pH 4.5, 30° C.
Protocol: as §1, §3

[11] = substrate: OC[C@H]1OC(O)[C@H](O)[C@@H](O)[C@@H]1O; assay: Steady-state kinetics, DCIP assay: M. thermophilum CDH W316R; type: biochemical, Myriococcum thermophilum; settings: other: apparent, pH 4.5, 30° C., ~ values only estimated by non linear regression
Protocol: as §4, §5, §6

B1: Corynascus thermophilus CDH flavodehydrogenase domain (amino acids 249-787 of SEQ ID NO: 7) variant C310Y (C310YDH) (Thermothelomyces fergusii; C310Y) (protein)
chain: YDYIVVGAGAGGITVADKLSEAGHKVLLIEKGPPSTGLWNGTMKPEWLEGTDLTRFDVPGLYNQIWVDSAGIACTDTDQMAGCVLGGGTAVNAGLWWKPHPADWDDNFPHGWKSSDLADATERVFSRIPGTWHPSQDGKLYRQEGFEVISQGLANAGWREVDANQEPSEKNRTYSHSVFMFSGGERGGPLATYLASAAQRSNFNLWVNTSVRRAIRTGPRVSGVELECLADGGFNGTVNLKEGGGVIFSAGAFGSAKLLLRSGIGPEDQLEIVASSKDGETFISKNDWIKLPVGHNLIDHLNTDLIITHPDVVFYDFYAAWDNPITEDKEAYLNSRSGILAQAAPNIGPLMWEEVTPSDGITRQFQWTCRVEGDSSKTNSTHAMTLSQYLGRGVVSRGRMGITSGLTTTVAEHPYLHNDGDLEAVIQGIQNVVDALSQVPDLEWVLPPPNTTVEEYVNSLIVSPANRRANHWMGTAKMGLDDGRSGGSAVVDLNTKVYGTDNLFVVDASIFPGMSTGNPSAMIVIVAEQAAQRILSLRY
[1]
  Km: 37.1 mM
  kcat: 17.6 s⁻¹
  kcat/Km: 474.4 M⁻¹ s⁻¹
[2]
  Km: 51.86 mM
  kcat: 0.69 s⁻¹
  kcat/Km: 13.3 M⁻¹ s⁻¹

B2: Corynascus thermophilus CDH flavodehydrogenase domain, recombinant wild type (wtDH), amino acids 249-787 of SEQ ID NO: 7 (Thermothelomyces fergusii) (protein)
chain: B1 chain with Y62C
[3]
  Km: 2.89 mM

B3: Corynascus thermophilus cellobiose dehydrogenase (CDH, SEQ ID NO: 7) variant C310Y (Thermothelomyces fergusii; C310Y) (protein)
chain: QMTEGTYTHEATGITFKTWTPSDGSTFTFGLALPGDALTNDATEYIGLLRCQITDPSSPGYCGISHGQSGQMTQALLLVAWASEDVVYTSFRYATGYTLPELYTGDAKLTQIASSVSGDSFEVLFRCENCFSWDQNGATGSVSTSNGALVLGYAASKSGLTGATCPDTAEFGFHNNGFGQWGAVLEGATSDSYEEWAQLATITPPTTCDGNGPGDKVCVPAPEDTYDYIVVGAGAGGITVADKLSEAGHKVLLIEKGPPSTGLWNGTMKPEWLEGTDLTRFDVPGLYNQIWVDSAGIACTDTDQMAGCVLGGGTAVNAGLWWKPHPADWDDNFPHGWKSSDLADATERVFSRIPGTWHPSQDGKLYRQEGFEVISQGLANAGWREVDANQEPSEKNRTYSHSVFMFSGGERGGPLATYLASAAQRSNFNLWVNTSVRRAIRTGPRVSGVELECLADGGFNGTVNLKEGGGVIFSAGAFGSAKLLLRSGIGPEDQLEIVASSKDGETFISKNDWIKLPVGHNLIDHLNTDLIITHPDVVFYDFYAAWDNPITEDKEAYLNSRSGILAQAAPNIGPLMWEEVTPSDGITRQFQWTCRVEGDSSKTNSTHAMTLSQYLGRGVVSRGRMGITSGLTTTVAEHPYLHNDGDLEAVIQGIQNVVDALSQVPDLEWVLPPPNTTVEEYVNSLIVSPANRRANHWMGTAKMGLDDGRSGGSAVVDLNTKVYGTDNLFVVDASIFPGMSTGNPSAMIVIVAEQAAQRILSLRY
[4]
  Km: 37.5 mM
  kcat: 19.67 s⁻¹
  kcat/Km: 524.5 M⁻¹ s⁻¹
[5]
  Km: 80.0 mM
  kcat: 0.95 s⁻¹
  kcat/Km: 12 M⁻¹ s⁻¹

B4: Myriococcum thermophilum cellobiose dehydrogenase (CDH, SEQ ID NO: 1) variant N313S (Thermothelomyces myriococcoides; N313S) (protein)
chain: QNNVPNTFTDPDSGITFNTWGLDEDSPQTQGGFTFGVALPSDALTTDASEFIGYLKCARNDESGWCGISLGGPMTNSLLITAWPHEDTVYTSLRFATGYAMPDVYEGDAEITQVSSSVNSTHFSLIFRCKNCLQWSHGGSSGGASTSGGVLVLGWVQAFDDPGNPTCPEQITLQQHDNGMGIWGAQLNTDAASPSYTDWAAQATKTVTGDCEGPTETSVVGVPVPTGVSFDYIVVGGGAGGIPAADKLSEAGKSVLLIEKGFASTANTGGTLGPEWLEGHDLTRFDVPGLCSQIWVDSKGIACEDTDQMAGCVLGGGTAVNAGLWFKPYSLDWDYLFPDGWKYNDVQPAINRALSRIPGTDAPSTDGKRYYQEGFEVLSKGLAAGGWTSVTANNAPDKKNRTFAHAPFMFAGGERNGPLGTYFQTAKKRNNFDVWLNTSVKRVIREGGHITGVEVEPFRDGGYEGIVPVTKVTGRVILSAGTFGSAKILLRSGIGPEDQLEVVAASEKDGPTMIGNSSWINLPVGYNLDDHLNTDTVISHPDVVFYDFYEAWDDPIESDKNSYLESRTGILAQAAPNIGPMFWEEIVGADGIVRQLQWTARVEGSLGAPNGHTMTMSQYLGRGATSRGRMTITPSLTTIVSDVPYLKDPNDKEAVIQGIINLQNALQNVANLTWLFPNSTITPREYVESMVVSPSNRRSNHWMGTNKLGTDDGRKGGSAVVDLDTRVYGTDNLFVIDASIFPGVPTTNPTSYIVVAAEHASSRILALPDLEPVPKYGQCGGREWTGSFVCADGSTCEYQNEWYSQCL
[6]
  Km: 52 mM
  kcat: 1.3 s⁻¹
  kcat/Km: 25 M⁻¹ s⁻¹

B5: Myriococcum thermophilum cellobiose dehydrogenase (CDH, SEQ ID NO: 1) variant W316L (Thermothelomyces myriococcoides; W316L) (protein)
chain: B4 chain with S292N, W295L
[7]
  kcat: 9.9 s⁻¹
  kcat/Km: 2.8 M⁻¹ s⁻¹

B6: Myriococcum thermophilum cellobiose dehydrogenase (CDH, SEQ ID NO: 1) variant R622N (Thermothelomyces myriococcoides; R622N) (protein)
chain: B4 chain with S292N, R601N
[8]
  kcat: 13.1 s⁻¹
  kcat/Km: 6.0 M⁻¹ s⁻¹

B7: Myriococcum thermophilum cellobiose dehydrogenase (CDH), recombinant wild type, SEQ ID NO: 1 (Thermothelomyces myriococcoides) (protein)
chain: B4 chain with S292N
[9]
  Km: 6.8 mM
  kcat: 0.32 s⁻¹
  kcat/Km: 47 M⁻¹ s⁻¹

B8: Myriococcum thermophilum cellobiose dehydrogenase (CDH, SEQ ID NO: 1) variant N721D (Thermothelomyces myriococcoides; N721D) (protein)
chain: B4 chain with S292N, N700D
[10]
  Km: 6.1 mM
  kcat: 0.08 s⁻¹
  kcat/Km: 13.2 M⁻¹ s⁻¹

B9: Myriococcum thermophilum cellobiose dehydrogenase (CDH, SEQ ID NO: 1) variant W316R (Thermothelomyces myriococcoides; W316R) (protein)
chain: B4 chain with S292N, W295R
[11]
  kcat: 1.2 s⁻¹
  kcat/Km: 0.34 M⁻¹ s⁻¹
